According to paper PMC10138814:

How the values were obtained:
[1] = target: His6-SUMO-LaM8-LaM4 (llama); experiment: BLI; His-SUMO-tandem nanobody loaded on Ni-NTA biosensors; mCherry or DsRed in solution; 20 mM HEPES pH 7.4, 150 mM NaCl, 0.005% Tween-20; association 600 s, dissociation 600 s; 2:1 heterogeneous ligand fit; DsRed concentration calculated as a monomer
[2] = target: His6-SUMO-LaM1-LaM8 (llama); experiment: as above

Chain of DsRed (Q9U6Y8 whole entry): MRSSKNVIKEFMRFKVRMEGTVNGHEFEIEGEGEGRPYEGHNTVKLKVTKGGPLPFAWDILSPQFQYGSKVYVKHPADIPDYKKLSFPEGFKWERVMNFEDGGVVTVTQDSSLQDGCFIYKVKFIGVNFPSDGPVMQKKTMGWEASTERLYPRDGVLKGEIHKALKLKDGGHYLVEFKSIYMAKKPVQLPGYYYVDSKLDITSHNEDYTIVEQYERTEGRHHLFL

| Substance | KD2 [1] | KD (site 1 of the 2:1 heterogeneous ligand fit) [1] | kdis1 [1] | kdis2 [1] | kon2 [1] | kon (site 1 of the 2:1 heterogeneous ligand fit) [1] | KD2 [2] | KD (site 1 of the 2:1 heterogeneous ligand fit) [2] | kdis1 [2] | kdis2 [2] | kon2 [2] | kon (site 1 of the 2:1 heterogeneous ligand fit) [2] |
| --- | --- | --- | --- | --- | --- | --- | --- | --- | --- | --- | --- | --- |
| DsRed (from UniProt Q9U6Y8 1-225) (natural protein) | 4.12 nM | 2.64 nM | 0.000232 s⁻¹ | 8.2e-05 s⁻¹ | 19900 M⁻¹ s⁻¹ | 88100 M⁻¹ s⁻¹ |  |  |  |  |  |  |
| mCherry | 1.29 nM | 1.38 nM | 0.000239 s⁻¹ | 6.51e-05 s⁻¹ | 50600 M⁻¹ s⁻¹ | 173000 M⁻¹ s⁻¹ | < 1 pM | 1.87 nM | 0.000552 s⁻¹ | < 1e-07 s⁻¹ | 46700 M⁻¹ s⁻¹ | 296000 M⁻¹ s⁻¹ |
